{"source": "patent US11858972B2", "about": "“Micropeptides and uses thereof” (FUNDACIÓ PRIVADA INSTITUT D'INVESTIGACIÓ ONCOLÒGICA DE VALL …, priority 2018, dated 2024)", "molecules": {"B1": {"name": "SEQ ID NO: 1: highly conserved 87 aa micropeptide coded by the lncRNA TINCR; predicted ubiquitin-like protein (protein, listed as Homo sapiens)", "chain": "MEGLRRGLSRWKRYHIKVHLADEALLLPLTVRPRDTLSDLRAQLVGQGVSSWKRAFYYNARRLDDHQTVRDARLQDGSVLLLVSDPR"}}, "key": {"[1]": {"system": "BxPC-3 pancreatic cancer cell line", "assay": "Cell viability by CellTiter-Glo after doxycycline-induced expression", "assay_type": "cell-based", "details": "BxPC-3, expression induced by doxycycline for 4 days", "text": "FIG. 5. Micropeptide of sequence SEQ ID NO: 1 overexpression induces cell cycle arrest and cellular senescence. BxPC-3 cells were transduced with an inducible lentivirus coding HA-SEQ ID NO: 1. Micropeptide of sequence SEQ ID NO: 1 expression was induced by doxycycline treatment for 4 days. (A) Phase contrast images of SEQ ID NO:1-expressing cells and control cells. (B) Cell viability analysis by CellTiter-Glo assay. (C) Cell cycle analysis by flow cytometry. Left, histogram plots. Right, quantification of the number of cells in every cell cycle phase (D) Analysis of p27 and p21 expression by qPCR. (E) Western Blot of the indicated cells using anti-HA and anti-p21 antibodies. (F) Quantification of the number of SA-β-Gal positive cells in doxycycline-treated and untreated cells. (G) Representative pictures of the cell quantified in (F). Graphs show the mean±SEM, using at least 3 technical replicates. **P<0.01 ***P<0,001 **** P<0.0001, two-tailed t-test.\n(§1) Micropeptide of SEQ ID NO: 1 expression was induced in BxPC3 cells by treatment with doxycycline (2 μg/ml) for 4 days. Cells were fixed using 100% ethanol at 4° C., stained with Propidium Iodide, and cell cycle was analysed by flow cytometry (LSR-Fortessa cytometer). Cell viability in micropeptide of SEQ ID NO: 1-expressing cells was evaluated using CellTiter-Glo 2.0 (Promega) following manufacturer's instructions."}, "H10 cancer cells": {"system": "H10 cancer cells", "assay": "Invasion assay (Boyden chamber, Matrigel)", "assay_type": "cell-based", "details": "H10, after 4 days of doxycycline induction, 24 h invasion", "method": "(§2) FIG. 9. SEQ ID NO: 1 overexpression impairs invasiveness and reduces mesenchymal traits in A549 and H10 cell lines. Invasion of indicated cells was analyzed in matrigel-coated inserts. (A) The undersides of membrane inserts containing invaded cells were fixed and stained with crystal violet and photographed 24 h after plating. (B) Number of invasive cells was calculated using ImageJ software. Bars plots show relative number of cells invading the chamber. (C) Analysis of several mesenchymal genes by qPCR. mRNA expression is shown relative to the control. * P<0.05, **P<0.01 two-tailed t-test.\n(§3) BxPC-3, MDA-MB-231, A549 and H10 cell lines were trypsinized, counted, and 20.000 cells/well were seeded in triplicate in a Corning® cell culture insert (Boyden chamber) in which the porous membrane is coated with a layer of Matrigel® to mimic an extra cellular matrix (ECM). Cells were allowed to invade through the coated membrane for 24 hours in the cell incubator at 37° C. After the incubation time, culture inserts were fixed in methanol 5 minutes at RT and stained using Crystal Violet 20 minutes at RT. The excess of Crystal Violet staining was removed washing with PBS and pictures of the chambers were taken using an Olympus CeIIR microscope. Invading cells were counted using ImageJ and fold change was calculated normalizing to the control."}, "A549 cancer cells": {"system": "A549 cancer cells", "assay": "Invasion assay (Boyden chamber, Matrigel)", "assay_type": "cell-based, human", "details": "A549, after 4 days of doxycycline induction, 24 h invasion", "method": "as §2, §3"}, "[2]": {"system": "SkBR-3, HPAF II, MIA PaCa-2 and BxPC-3 cells", "assay": "Cell death upon puromycin selection stress (phase contrast images)", "assay_type": "cell-based", "details": "Puromycin selection of infected cells, pMSCV non-inducible vector; several pancreatic and breast cancer cell lines", "method": "(§4) FIG. 6. Micropeptide of sequence SEQ ID NO: 1 expression induces cell death upon cellularstress. SkBR-3, HPAF II, MIA PaCa-2 and BxPC-3 cells were infected with empty or SEQ ID NO: 1-HA retroviruses, and selected by puromycin. Micropeptide of sequence SEQ ID NO: 1 expression was analyzed by qPCR (A) and by Western blot (B). (C) Phase contrast images of the indicated cells 3 days after selection with puromycin. […] (E) BXPC-3 cells were infected with an inducible lentivirus encoding SEQ ID NO: 1-HA, and selected with Neomycin. Micropeptide of sequence SEQ ID NO: 1 expression was induced by doxycycline, and cells were treated with Doxorubicin or Actinomycin D. (E) Cell viability of the indicated cells measured by crystal violet staining."}, "BxPC-3 cells": {"system": "BxPC-3 cells", "assay": "Drug sensitivity assay, cell viability by crystal violet", "assay_type": "cell-based", "set-up": "cell death induced by Doxorubicin: dose or concentration left out as unconfirmed", "details": "days 2 to 4", "method": "as §4, with “staining. For drug sensitivity assays, doxycycline induction was coupled with Doxorubicin ([…]) or Actinomycin D (5 nM) (from days 2 to 4), and cell viability was measured by staining with crystal violet.” for “staining.”"}, "[3]": {"system": "Lung cancer cell line A549", "assay": "Cell proliferation assay (growth curve, 14 days)", "assay_type": "cell-based, human", "details": "A549, monitored for 14 days, vs control vector", "text": "(§5) FIG. 8. SEQ ID NO: 1 overexpression reduces cell proliferation. A549 and H10 cells were transduced with an inducible lentivirus coding HA-SEQ ID NO: 1. SEQ ID NO: 1 expression was induced by doxycycline treatment for 14 days. (A) Growth curve of transduced cells over 14 days of SEQ ID NO:1 expression. (B) Cell cycle analysis by flow cytometry. Left, histogram plots. Right, quantification of the number of cells in every cell cycle phase. Graphs show the mean±SD, using at least 3 technical replicates. **** P<0.0001, two-tailed t-test.\nA549 and H10 cell lines were dissociated by trypsin digestion and seeded into 24-well cell culture plates at density 5×10^3 cells/well. Every two days, cells were dissociated from wells and counted using a Neubauer chamber. Cell growth curves were monitored for 14 days."}, "H10 cells": {"system": "H10 cells", "assay": "Cell cycle analysis by flow cytometry", "assay_type": "cell-based", "text": "as §5, §1"}}, "data": [{"molecule": "B1", "values": [{"measurement": "cell proliferation", "setting": "[1]", "result": "significantly reduces cell proliferation"}, {"measurement": "invasion", "setting": "H10 cancer cells", "result": "significant decrease in invasion"}, {"measurement": "invasion", "setting": "A549 cancer cells", "result": "significant decrease in invasion"}, {"measurement": "cell death when coupled with cellular stress", "setting": "[2]", "result": "extensive cell death"}, {"measurement": "cell death induced by Actinomycin D", "setting": "BxPC-3 cells; BxPC-3, doxycycline induction coupled with Actinomycin D (5 nM)", "result": "sensitizes to cell death"}, {"measurement": "cell death induced by Doxorubicin", "setting": "BxPC-3 cells; BxPC-3, doxycycline induction coupled with Doxorubicin", "result": "sensitizes to cell death"}, {"measurement": "growth rate", "setting": "[3]", "result": "consistently lower growth rate"}, {"measurement": "cells arrested in G1 phase", "setting": "H10 cells", "result": "increase in cells arrested in G1 phase"}]}]}
